The target in assay [1] is T1, biotinylated IL-22 with an N-terminal His/FLAG tag (bio.IL-22H/F) (human, UniProt Q9GZX6 34-179, biotinylated (site not stated)).
T1 construct: not shown: N-terminal His/FLAG tag
T1 sequence: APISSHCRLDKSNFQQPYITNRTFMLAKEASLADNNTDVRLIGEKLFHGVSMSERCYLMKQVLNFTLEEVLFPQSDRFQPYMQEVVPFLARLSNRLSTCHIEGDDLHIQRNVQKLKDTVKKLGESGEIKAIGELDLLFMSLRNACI
Description: biotinylated IL-22 binding IL-22 receptor complex competition assay, purified scFv, fully germlined. On the procedure: (§1) Microtiter plates were coated with an IL-22 receptor complex antibody (1 μg/ml in PBS), and incubated for 1.5 hours at room temperature. Plates were washed three times in PBST, and blocked for 1 hour at room temperature with 2% MPBS. After a further 3 washes, diluted cell conditioned medium containing an IL-22 receptor complex was added and incubated overnight at 4° C. Crude scFv supernatants were prepared as described above. The following day, 25 μl of diluted scFv sample and 25 μl of bio.IL-22H/F (6 ng/ml) were added to the washed plates, and incubated for 1.5 hours at room temperature. Plates were washed 3 times in PBST, then binding of bio.IL-22H/F to the IL-22 receptor complex was detected with Europium-Streptavidin and the DELFIA® reagent kit (PerkinElmer). Time Resolved Fluorescence was measured using a Victor 2™ Plate Reader (Perkin Elmer).
(§2) Sequence data for the six parent clones was used to identify the nearest germline sequence for the heavy and light chain of each clone. Appropriate mutations were made using standard site directed mutagenesis techniques with the appropriate mutagenic primers. Mutation of sequences was confirmed by sequence analysis. Purified scFv from the germlined parent clones were tested in the biotinylated IL-22 binding IL-22 receptor complex competition assay as described earlier, in order to establish the clone potency as measured by IC₅₀ values in the assay.

Assay [2] has as its target T1, biotinylated IL-22 with an N-terminal …. Kind of assay: DELFIA competition assay: scFv titrated against bio.IL-22H/F binding to the captured IL-22 receptor complex. On the procedure:
as §1
Purified scFv from positive clones identified from the screening were tested in the DELFIA® IL-22 receptor complex competition assay as described above. A titration of scFv concentrations was used in order to establish the clone potency as measured by IC₅₀ values in the assay. Fourteen optimized clones were designated 097D09, 062A09, 062G05, 087B03, 367D04, 368D04, 166B06, 166G05, 375G06, 376B10, 354A08, 355B06, 355E04, and 356A11.

Assay [3] shares this target. The assay is described as above. On the procedure:
(§3) Both the IL-22/IL-22R binding assay (described above) and the IL-22/IL-22 receptor complex assay (described below) were used. ScFv concentrations were titrated in order to establish the clone potencies as measured by assay IC₅₀ values. These were determined using GraphPad Prism software and four-parameter logistic equation curve fitting.
as §1
The source holds these as a separate data set.

Assay [4] shares this target. Description: IL-22 receptor complex inhibition assay (bio.IL-22H/F binding to IL-22 receptor complex, DELFIA), scFv. On the procedure:
as §3, §1

For assay [5] the target is unchanged. Description: biotinylated IL-22 binding IL-22 receptor complex competition assay, purified scFv, parent. On the procedure:
as §1, §2

Assay [6] shares this target. Description: IL-22 receptor complex inhibition assay (bio.IL-22H/F binding to IL-22 receptor complex, DELFIA), IgG. On the procedure: Potency of purified IgG was verified in the biochemical IL-22 receptor complex inhibition assay as described below. IgG concentrations were titrated in order to obtain potency values.
as §1

B1: GIL01 scFv, fully germlined (scFv)
scFv: QVQLVESGGGLVKPGGSLRLSCAASGFTFSDYYMSWIRQAPGKGLEWVSAISGSGGSTYYADSVKGRITISRDNAKNSLYLQMNSLRAEDTAVYYCARGLWVWDPLDYWGRGTLVTVSSGGGGSGGGGSGGGGSDIQMTQSPSTLSASVGDRVTITCRASEGIYHWLAWYQQKPGKAPKLLIYKASSLASGVPSRFSGSGSGTDFTLTISSLQPDDFATYYCQQYSNYPLTFGGGTKVEIKRA
For orientation: IC50 means the concentration at which inhibition is half-maximal. In assay [1], B1 registered an IC50 of 143 nM.

B2: GIL60 scFv (non-germlined parent) (scFv)
scFv: EVQLVESGGGVVRPGGSLRLSCAASGFTFDDYGMNWVRQAPGKGLEWVSGVNGNGGTRDYAASVKGRFTISRDNAKNSLYLQMNSLRAEDTALYYCARGWYSGSFYYFGYWGRGTLVTVSSGGGGSGGGGSGGGGSAQAVLTQPSSVSGSPGQSITISCTGASGDVGAYNFVSWYQQHPGKTPKLIIYDVNKRPSGVSNRFSGSKSGNTASLTISGLQAEDESDYYCSSYTSTFSVVFGGGTKVTVLGAA
Regarding B2, the concentration for half-maximal inhibition (IC50) was found to be 30.8 nM in assay [2], 60 nM in assay [3], 43 nM in assay [4] and 51 nM in assay [5].

B3: GIL68 scFv, fully germlined (scFv)
scFv: QVQLVQSGAEVKKPGASVKVSCKASGYTFSDYYIHWVRQAPGQGLEWMGWVNPDTGGTRYAQKFQGRVTMTRDMSISTAYMELSRLRSDDTAVYYCARDLTGFDPFDIWGQGTLVTVSSGGGGSGGGGSGGGGSASSVLTQPPSVSVAPGKTARITCGGNNFRNKRVHWYQQKPGQAPVLVIYYDSDRPSGIPERFSGSRSGNTATLTISRVEAGDEADYYCQVWDSSTDRPLFGGGTKLTVLGA
For B3, in assay [1], the half-inhibitory concentration (IC50) turned out to be 14 nM.

B4: GIL92 scFv (non-germlined parent) (scFv)
scFv: QVQLVQSGAEVKKPGASVKVSCKASGYTFTDYYMHWVRQAPGQGLEWVGWINPYTGGAFYAQKFRGRVTMTRDTSINTAYMELSRLGSDDTAVYYCAREPEKFDFWGGDNWGRGTMVTVSSGGGGSGGGGSGGGGSAQAVLTQPSSVSGAPGQRVTISCTGSSSNIGAGYGVHWYQQLPGTAPKLLIYGNSNRPSGVPDRFSGSKSGTSASLAITGLQAEDEADYYCQSYDSSLSGYVFGTGTQLTVLSAAA
Turning to B4, the IC50 in assay [2] is 15.3 nM; in assay [3], 40 nM; in assay [4] it was 16 nM; in assay [5], 18 nM.

B5: GIL16 scFv (non-germlined parent) (scFv)
scFv: QVQLVESGAEVKKPGASVKVSCKASGYTFTSYGISWVRQAPGQGLEWMGWISAYTGNTNYAQKFQGRVTMTTDTSTSTAYMELRSLRSDDTAVYYCARDRGYYDAFDIWGQGTLVTVSSGGGGSGGGGSGGGGSDIQMTQSPSTLSASIGDRVTITCRASEGIYHWLAWYQQKPGKAPKLLIYKASSLASGAPSRFSGSGSGTDFTLTISSLQPDDFATYYCQQYSNYPLTFGGGTKLEIKRAAA
For the molecule B5, the IC50 came out at 25.9 nM in assay [2], 55 nM in assay [3], 49 nM in assay [4] and 44 nM in assay [5].

B6: GIL01 IgG (non-germlined parent) (antibody, V domains shown)
VH: EVQLVESGGGLVTPGGSLRLSCAASGFTFSDYYMSWIRQAPGRGLEWVSAISGSGGSTYYADSVKGRITISRDNAKNSLYLQMSSLRSEDTAVYYCARGLWVWDPLDYWGRGTLVTVSS
VL: DIQMTQSPSTLSASIGDRVTITCRASEGIYHWLAWYQQKPGKAPKLLIYKASSLASGAPSRFSGSGSGTDFTLTISSLQPDDFATYYCQQYSNYPLTFGGGTKLEIKR
notes: Human IgG4 heavy chain constant domain
As for B6, the concentration for half-maximal inhibition (IC50) in assay [6] is 13 nM.

B7: GIL16 IgG (non-germlined parent) (antibody, V domains shown)
VH: QVQLVESGAEVKKPGASVKVSCKASGYTFTSYGISWVRQAPGQGLEWMGWISAYTGNTNYAQKFQGRVTMTTDTSTSTAYMELRSLRSDDTAVYYCARDRGYYDAFDIWGQGTLVTVSS
VL: B6 VL
notes: as for B6
Molecule B7 had an IC50 in assay [6] of 10 nM.

B8: GIL92 scFv, fully germlined (scFv)
scFv: QVQLVQSGAEVKKPGASVKVSCKASGYTFTDYYMHWVRQAPGQGLEWVGWINPYTGGAFYAQKFRGRVTMTRDTSISTAYMELSRLRSDDTAVYYCAREPEKFDFWGGDNWGRGTLVTVSSGGGGSGGGGSGGGGSAQAVLTQPPSVSGAPGQRVTISCTGSSSNIGAGYGVHWYQQLPGTAPKLLIYGNSNRPSGVPDRFSGSKSGTSASLAITGLQAEDEADYYCQSYDSSLSGYVFGGGTQLTVLSA
B8: the half-maximal inhibitory concentration (IC50) in assay [1] was found to be 40 nM.

B9: GIL01 scFv (non-germlined parent) (scFv)
scFv: EVQLVESGGGLVTPGGSLRLSCAASGFTFSDYYMSWIRQAPGRGLEWVSAISGSGGSTYYADSVKGRITISRDNAKNSLYLQMSSLRSEDTAVYYCARGLWVWDPLDYWGRGTLVTVSSGGGGSGGGGSGGGGSDIQMTQSPSTLSASIGDRVTITCRASEGIYHWLAWYQQKPGKAPKLLIYKASSLASGAPSRFSGSGSGTDFTLTISSLQPDDFATYYCQQYSNYPLTFGGGTKLEIKRAAA
notes: also called GIL 1
With B9, the half-inhibitory concentration (IC50) in assay [2] was 129 nM; in assay [3], 95 nM; in assay [4] it was 104 nM; in assay [5], 124 nM.

B10: GIL60 IgG (non-germlined parent) (antibody, V domains shown)
VH: EVQLVESGGGVVRPGGSLRLSCAASGFTFDDYGMNWVRQAPGKGLEWVSGVNWNGGTRDYAASVKGRFTISRDNAKNSLYLQMNSLRAEDTALYYCARGWYSGSFYYFGYWGRGTLVTVSS
VL: QAVLTQPSSVSGSPGQSITISCTGASGDVGAYNFVSWYQQHPGKTPKLIIYDVNKRPSGVSNRFSGSKSGNTASLTISGLQAEDESDYYCSSYTSTFSVVFGGGTKVTVLG
notes: as for B6
For B10, the IC50 in assay [6] is 15 nM.

B11: GIL16 scFv, fully germlined (scFv)
scFv: QVQLVQSGAEVKKPGASVKVSCKASGYTFTSYGISWVRQAPGQGLEWMGWISAYTGNTNYAQKFQGRVTMTTDTSTSTAYMELRSLRSDDTAVYYCARDRGYYDAFDIWGQGTLVTVSSGGGGSGGGGSGGGGSDIQMTQSPSTLSASVGDRVTITCRASEGIYHWLAWYQQKPGKAPKLLIYKASSLASGVPSRFSGSGSGTEFTLTISSLQPDDFATYYCQQYSNYPLTFGGGTKVEIKRA
In assay [1], B11 displayed a 50% inhibitory concentration (IC50) of 38 nM.

B12: GIL60 scFv, fully germlined (scFv)
scFv: EVQLVESGGGVVRPGGSLRLSCAASGFTFDDYGMNWVRQAPGKGLEWVSGVNWNGGTRDYAASVKGRFTISRDNAKNSLYLQMNSLRAEDTALYHCARGWYSGSFYYFGYWGRGTLVTVSSGGGGSGGGGSGGGGSAQAALTQPASVSGSPGQSITISCTGASGDVGAYNFVSWYQQHPGKAPKLIIYDVNKRPSGVSNRFSGSKSGNTASLTISGLQAEDEADYYCSSYTSTFSVVFGGGTKLTVLGA
In assay [1], B12 registered an IC50 of 82 nM.

B13: GIL45 IgG (non-germlined parent) (antibody, V domains shown)
VH: QMQLVQSGGGVVQPGRSLRLSCAASGFTFSNYGMYWVRQAPGKGLEWVAHIWYDGSNEKYADSVKGRMTVSRDNSRNTLYLQMNSLRAEDTAVYYCATEQHWITAFDIWGKGTLVTVSS
VL: QSVLTQPASVSGSPGQSITISCTGTSSDVGGYNYVSWYQQHPGKAPKLMIYEGSKRPSGVSNRFSGSKSGNTASLTISGLQAEDEADYYCSSYTTRSTRVFGGGTKLTVLG
notes: as for B6
As for B13, the half-maximal inhibitory concentration (IC50) in assay [6] came to 180 nM.

The values are drawn from patent publication US20070243589A1 (Pfizer, published 2007).
